What was measured:
SEC-MALS = target: the molecule itself; assay: SEC-MALS
native gel or EMSA = target: the molecule itself; assay: native gel or EMSA

B1: Cdc13 (full-length S. cerevisiae Cdc13) (natural protein, UniProt P32797 1-924, looked up)
chain: MDTLEEPECPPHKNRIFVSSSKDFEGYPSKAIVPVQFVALLTSIHLTETKCLLGFSNFERRGDQSQEDQYLIKLKFKDRGSERLARITISLLCQYFDIELPDLDSDSGASPTVILRDIHLERLCFSSCKALYVSKHGNYTLFLEDIKPLDLVSVISTISTKSTNSSKHSSSELISECDLNNSLVDIFNNLIEMNRDEKNRFKFVKLIHYDIELKKFVQDQQKVLSQKSKAAAINPFFVPNRLGIPYIESQNEFNSQLMTLNVDEPTTDISNMGEEMHDSADPIEDSDSSTTSSTGKYFSSKSYIQSQTPERKTSVPNNWHDDDSGSKRKRKLSFHSPNASSIRKAISYEQLSLASVGSVERLEGKIVGMNPPQFASINEFKYCTLKLYFTQLLPNVPDKVLVPGVNCIEIVIPTRERICELFGVLNCQSDKISDILLLEKPDRISVEVERILWDNDKTASPGMAVWSLKNISTDTQAQAQVQVPAQSSASIDPSRTRMSKMARKDPTIEFCQLGLDTFETKYITMFGMLVSCSFDKPAFISFVFSDFTKNDIVQNYLYDRYLIDYENKLELNEGFKAIMYKNQFETFDSKLRKIFNNGLRDLQNGRDENLSQYGIVCKMNIKVKMYNGKLNAIVRECEPVPHSQISSIASPSQCEHLRLFYQRAFKRIGESAISRYFEEYRRFFPIHRNGSHLAKLRFDEVKHEPKKSPTTPALAEHIPDLNADVSSFDVKFTDISSLLDSSARLPRPQQTHKSNTLYSCEGRIIAIEYHASDLCFHITNELPLLQTRGLAPERVLQLHIITSKNFAYFFNRSSAYLQRQPLEEKYTQLAQFLGHSFKFNITSSLTLFPDTTVALQIWCPIECTFRELQQQLAHPKVAAAPDSGSLDCAINATVNPLRLLAAQNGVTVKKEEDNDDDAGAVPTS
- stoichiometry N (SEC-MALS): 2
- Kd (native gel or EMSA): 5.1 nM

B2: Cdc13-MOB (middle OB-fold domain, residues 344-496) (domain or fragment, S. cerevisiae, UniProt P32797 344-496, looked up)
chain: KAISYEQLSLASVGSVERLEGKIVGMNPPQFASINEFKYCTLKLYFTQLLPNVPDKVLVPGVNCIEIVIPTRERICELFGVLNCQSDKISDILLLEKPDRISVEVERILWDNDKTASPGMAVWSLKNISTDTQAQAQVQVPAQSSASIDPSRT
- stoichiometry N (SEC-MALS): 2

Reference: paper PMC3874162 (Nucleic Acids Research, 2013)
